Experiment [1] addresses human Y2 receptor (human) (UniProt P49146). Briefly: RBA: displacement of [125I]-PYY from hY2R/CHO membranes. For orientation: Displacement assays read how much labelled ligand stays bound in the presence of the test substance.
For experiment [2] the target is unchanged. Briefly: cell-based or functional assay.

Non-standard residues stand in square brackets, D forms with d. tBuAla = CC(C)(C)C[C@H](N)C(=O)O; 4Pal = N[C@@H](Cc1ccncc1)C(=O)O; dHyp = O=C(O)[C@H]1C[C@H](O)CN1; Cha = N[C@@H](CC1CCCCC1)C(=O)O; Iva = CC[C@](C)(N)C(=O)O; Aib = CC(C)(N)C(=O)O

Chain of human Y2 receptor (human) (P49146 whole entry): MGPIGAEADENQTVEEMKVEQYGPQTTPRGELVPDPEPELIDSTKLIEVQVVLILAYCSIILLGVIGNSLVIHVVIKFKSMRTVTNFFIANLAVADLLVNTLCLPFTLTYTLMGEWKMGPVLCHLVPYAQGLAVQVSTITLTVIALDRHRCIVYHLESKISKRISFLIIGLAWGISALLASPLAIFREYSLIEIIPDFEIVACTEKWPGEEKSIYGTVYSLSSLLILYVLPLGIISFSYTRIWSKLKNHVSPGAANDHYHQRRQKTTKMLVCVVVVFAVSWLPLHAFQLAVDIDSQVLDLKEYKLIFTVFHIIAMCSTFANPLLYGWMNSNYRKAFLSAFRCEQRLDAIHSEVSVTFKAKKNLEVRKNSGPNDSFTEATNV

Consider “Ac-[D-Pro24, Pya(4)26, Ala(4Pip)27, Aib28,31, Lys30, Cha36]-PYY(23-36) former peak (peptide)”, for which the IC50 Ratio (IC50 compound/IC50 PYY(3-36)) in experiment [1] came out at 17. The GBA EC50 Ratio ([35S]GTPγS binding) (EC50 compound/EC50 PYY(3-36)) in experiment [2] is 11.
Taken in the same sequence, the figures for “[(1S)-1-Carboxy-3-methylbutyl]carbamoyl-[D-Pro24, Pya(4)26, Cha27,36, Aib28,31, Lys30]-PYY(23-36) (peptide)” were 0.82 and 0.82.
In the case of “Ac-[D-Pro24, Pya(4)26, Cha27,36, D-Iva28, Lys30, Iva31]-PYY(23-36) (peptide)”, the IC50 Ratio (IC50 compound/IC50 PYY(3-36)) in experiment [1] amounted to 3.4. Also, the GBA EC50 Ratio ([35S]GTPγS binding) (EC50 compound/EC50 PYY(3-36)) in experiment [2] was 1.1.
Take “Ac-[D-Pro24, Pya(4)26, Cha27,36, Aib28,31, Nle30]-PYY(23-36) (peptide)”: the IC50 Ratio (IC50 compound/IC50 PYY(3-36)) in experiment [1] turned out to be 0.96. In experiment [2], the GBA EC50 Ratio ([35S]GTPγS binding) (EC50 compound/EC50 PYY(3-36)) turned out to be 1.4.
In the same order, the values of “Ac-[D-Pro24, Pya(4)26, Cha27,36, Iva28,31, Lys30]-PYY(23-36) (peptide)” are 0.31 and 1.
Taken in the same sequence, the figures for “Ac-[D-Pro24, Pya(4)26, Cha27, Aib28,31, Lys30, Phe(3Me)36]-PYY(23-36) (peptide)” were 0.91 and 1.2.
For “Ac-[D-Pro24, Pya(4)26, Cha27,36, Aib28,31, Lys(Hexyl)30]-PYY(23-36) (peptide)”, in experiment [1], the IC50 Ratio (IC50 compound/IC50 PYY(3-36)) is 1. The GBA EC50 Ratio ([35S]GTPγS binding) (EC50 compound/EC50 PYY(3-36)) in experiment [2] stood at 1.3.
In the same order, the values of “Ac-[D-Pro24, Pya(4)26, Cha27,36, Aib28,31, Lys(Me2)30]-PYY(23-36) (peptide)” are 1.1 and 1.7.
Regarding “Ac-[D-Pro24, Pya(4)26, Phe(4F)27, Aib28,31, Lys30, Cha36]-PYY(23-36) (peptide)”, the IC50 Ratio (IC50 compound/IC50 PYY(3-36)) in experiment [1] turned out to be 10. Further, in experiment [2], the GBA EC50 Ratio ([35S]GTPγS binding) (EC50 compound/EC50 PYY(3-36)) came out at 3.9.
Taken in the same sequence, the figures for “Ac-[D-Pro24, Pya(4)26, Cha27,36, Iva28, Lys30, Aib31]-PYY(23-36) (peptide)” were 0.33 and 1.2.
As to “Ac-[D-Pro24, Pya(4)26, Nal(1)27, Aib28,31, Lys30, Cha36]-PYY(23-36) (peptide)”, the IC50 Ratio (IC50 compound/IC50 PYY(3-36)) in experiment [1] was found to be 2.9. Also, the GBA EC50 Ratio ([35S]GTPγS binding) (EC50 compound/EC50 PYY(3-36)) in experiment [2] is 1.7.
Taken in the same sequence, the figures for “Ac-[D-Pro24, Pya(4)26, Ala(4Pip)27, Aib28,31, Lys30, Cha36]-PYY(23-36) later peak (peptide)” were 3.8 and 3.9.
For the molecule “Ac-[D-Pro24, Pya(4)26, Cha27,36, Aib28,31, Hse30]-PYY(23-36) (peptide)”, the IC50 Ratio (IC50 compound/IC50 PYY(3-36)) in experiment [1] was determined as 5.8. In addition, the GBA EC50 Ratio ([35S]GTPγS binding) (EC50 compound/EC50 PYY(3-36)) in experiment [2] turned out to be 5.7.
Taken in the same sequence, the figures for “Ac-[D-Pro24, Pya(4)26, Cha27,36, Aib28,31, Har30]-PYY(23-36) (peptide)” were 0.36 and 0.79.
With “Ac-[D-Hyp24, Iva25, Pya(4)26, Cha27,36, Aib28,31, Lys30]-PYY(23-36) (peptide)”, the IC50 Ratio (IC50 compound/IC50 PYY(3-36)) in experiment [1] stood at 1.5. In addition, the GBA EC50 Ratio ([35S]GTPγS binding) (EC50 compound/EC50 PYY(3-36)) in experiment [2] is 1.4.
Taken in the same sequence, the figures for “(3-Carboxypropyl)carbamoyl-[D-Hyp24, Iva25, Pya(4)26, Cha27,36, Leu(Me)28, Lys30, Aib31]-PYY(23-36) (peptide)” were 0.57 and 1.7.
Turning to “4-Imidazolecarbonyl-[D-Hyp24, Iva25,28, Pya(4)26, Cha27,36, Lys30, Aib31]-PYY(23-36) (peptide)”, in experiment [1], the IC50 Ratio (IC50 compound/IC50 PYY(3-36)) was 0.99. The GBA EC50 Ratio ([35S]GTPγS binding) (EC50 compound/EC50 PYY(3-36)) in experiment [2] worked out at 1.3.
Regarding “(Carboxymethyl)carbamoyl-[D-Pro24, Pya(4)26, Cha27,36, Aib28,31, Lys30]-PYY(23-36) (peptide)”, the IC50 Ratio (IC50 compound/IC50 PYY(3-36)) in experiment [1] came out at 1.2. For the same molecule, in experiment [2], the GBA EC50 Ratio ([35S]GTPγS binding) (EC50 compound/EC50 PYY(3-36)) worked out at 1.2.
Take “Ac-[D-Hyp24, Iva25, Pya(4)26, Cha27,36, Leu(Me)28, Lys30, Aib31]-PYY(23-36) (peptide)”: in experiment [1], the IC50 Ratio (IC50 compound/IC50 PYY(3-36)) came out at 0.97. The GBA EC50 Ratio ([35S]GTPγS binding) (EC50 compound/EC50 PYY(3-36)) in experiment [2] was 1.5.
For “[(1S)-1-Carboxyethyl]carbamoyl-[D-Pro24, Pya(4)26, Cha27,36, Aib28,31, Lys30]-PYY(23-36) (peptide)”, the IC50 Ratio (IC50 compound/IC50 PYY(3-36)) in experiment [1] is 0.78. Besides, in experiment [2], the GBA EC50 Ratio ([35S]GTPγS binding) (EC50 compound/EC50 PYY(3-36)) is 0.94.
As for “Ac-[D-Pro24, Har25, Pya(4)26, Cha27,36, Aib28,31, Lys30]-PYY(23-36) (peptide)”, the IC50 Ratio (IC50 compound/IC50 PYY(3-36)) in experiment [1] came out at 0.82. The GBA EC50 Ratio ([35S]GTPγS binding) (EC50 compound/EC50 PYY(3-36)) in experiment [2] worked out at 1.4.
Taken in the same sequence, the figures for “(Tetrahydro-2H-pyran-4-yl)carbonyl-[D-Pro24, Pya(4)26, Cha27,36, Aib28,31, Lys30]-PYY(23-36) (peptide)” were 1.1 and 0.71.

B1: Ac-[Glu23, D-Hyp24, Pya(4)26, Cha27,36, Aib28,31, Lys30]-PYY(23-36) (peptide)
peptide: Ac-E[dHyp]R[4Pal][Cha][Aib]NK[Aib]TRQR[Cha]-NH2
SMILES: CC(=O)N[C@@H](CCC(=O)O)C(=O)N1C[C@@H](O)C[C@@H]1C(=O)N[C@@H](CCCNC(=N)N)C(=O)N[C@@H](Cc1ccncc1)C(=O)N[C@@H](CC1CCCCC1)C(=O)NC(C)(C)C(=O)N[C@@H](CC(N)=O)C(=O)N[C@@H](CCCCN)C(=O)NC(C)(C)C(=O)N[C@H](C(=O)N[C@@H](CCCNC(=N)N)C(=O)N[C@@H](CCC(N)=O)C(=O)N[C@@H](CCCNC(=N)N)C(=O)N[C@@H](CC1CCCCC1)C(N)=O)[C@@H](C)O
For the molecule B1, in experiment [1], the IC50 Ratio (IC50 compound/IC50 PYY(3-36)) was 3.4. The GBA EC50 Ratio ([35S]GTPγS binding) (EC50 compound/EC50 PYY(3-36)) in experiment [2] was 2.2.

B2: Ac-[D-Hyp24, Cha27,36, Leu(Me)28, Lys30, Aib31]-PYY(23-36) (peptide)
peptide: Ac-S[dHyp]RH[Cha][tBuAla]NK[Aib]TRQR[Cha]-NH2
SMILES: CC(=O)N[C@@H](CO)C(=O)N1C[C@@H](O)C[C@@H]1C(=O)N[C@@H](CCCNC(=N)N)C(=O)N[C@@H](Cc1c[nH]cn1)C(=O)N[C@@H](CC1CCCCC1)C(=O)N[C@@H](CC(C)(C)C)C(=O)N[C@@H](CC(N)=O)C(=O)N[C@@H](CCCCN)C(=O)NC(C)(C)C(=O)N[C@H](C(=O)N[C@@H](CCCNC(=N)N)C(=O)N[C@@H](CCC(N)=O)C(=O)N[C@@H](CCCNC(=N)N)C(=O)N[C@@H](CC1CCCCC1)C(N)=O)[C@@H](C)O
Consider B2, for which the IC50 Ratio (IC50 compound/IC50 PYY(3-36)) in experiment [1] stood at 0.38. Further, the GBA EC50 Ratio ([35S]GTPγS binding) (EC50 compound/EC50 PYY(3-36)) in experiment [2] came to 0.76.

B3: Ac-[D-Pro24, Cha27,28,36, Iva30, Aib31]-PYY(23-36) (peptide)
peptide: Ac-S[dP]RH[Cha][Cha]N[Iva][Aib]TRQR[Cha]-NH2
SMILES: CC[C@](C)(NC(=O)[C@H](CC(N)=O)NC(=O)[C@H](CC1CCCCC1)NC(=O)[C@H](CC1CCCCC1)NC(=O)[C@H](Cc1c[nH]cn1)NC(=O)[C@H](CCCNC(=N)N)NC(=O)[C@H]1CCCN1C(=O)[C@H](CO)NC(C)=O)C(=O)NC(C)(C)C(=O)N[C@H](C(=O)N[C@@H](CCCNC(=N)N)C(=O)N[C@@H](CCC(N)=O)C(=O)N[C@@H](CCCNC(=N)N)C(=O)N[C@@H](CC1CCCCC1)C(N)=O)[C@@H](C)O
For B3, the IC50 Ratio (IC50 compound/IC50 PYY(3-36)) in experiment [1] turned out to be 43. For the same molecule, the GBA EC50 Ratio ([35S]GTPγS binding) (EC50 compound/EC50 PYY(3-36)) in experiment [2] amounted to 20.

B4: Ac-[Glu23, D-Hyp24, Cha27,28,36, Lys30, Aib31]-PYY(23-36) (peptide)
peptide: Ac-E[dHyp]RH[Cha][Cha]NK[Aib]TRQR[Cha]-NH2
SMILES: CC(=O)N[C@@H](CCC(=O)O)C(=O)N1C[C@@H](O)C[C@@H]1C(=O)N[C@@H](CCCNC(=N)N)C(=O)N[C@@H](Cc1c[nH]cn1)C(=O)N[C@@H](CC1CCCCC1)C(=O)N[C@@H](CC1CCCCC1)C(=O)N[C@@H](CC(N)=O)C(=O)N[C@@H](CCCCN)C(=O)NC(C)(C)C(=O)N[C@H](C(=O)N[C@@H](CCCNC(=N)N)C(=O)N[C@@H](CCC(N)=O)C(=O)N[C@@H](CCCNC(=N)N)C(=O)N[C@@H](CC1CCCCC1)C(N)=O)[C@@H](C)O
On to B4, for which the IC50 Ratio (IC50 compound/IC50 PYY(3-36)) in experiment [1] worked out at 0.8. For the same molecule, in experiment [2], the GBA EC50 Ratio ([35S]GTPγS binding) (EC50 compound/EC50 PYY(3-36)) is 1.3.

B5: Ac-[D-Pro24, Pya(4)26, Cha27,36, Aib28,31, Trp30]-PYY(23-36) (peptide)
peptide: Ac-S[dP]R[4Pal][Cha][Aib]NW[Aib]TRQR[Cha]-NH2
SMILES: CC(=O)N[C@@H](CO)C(=O)N1CCC[C@@H]1C(=O)N[C@@H](CCCNC(=N)N)C(=O)N[C@@H](Cc1ccncc1)C(=O)N[C@@H](CC1CCCCC1)C(=O)NC(C)(C)C(=O)N[C@@H](CC(N)=O)C(=O)N[C@@H](Cc1c[nH]c2ccccc12)C(=O)NC(C)(C)C(=O)N[C@H](C(=O)N[C@@H](CCCNC(=N)N)C(=O)N[C@@H](CCC(N)=O)C(=O)N[C@@H](CCCNC(=N)N)C(=O)N[C@@H](CC1CCCCC1)C(N)=O)[C@@H](C)O
Take B5: the IC50 Ratio (IC50 compound/IC50 PYY(3-36)) in experiment [1] turned out to be 2.5. Also, the GBA EC50 Ratio ([35S]GTPγS binding) (EC50 compound/EC50 PYY(3-36)) in experiment [2] was found to be 2.4.

B6: Ac-[Glu23, D-Pro24, Pya(4)26, Cha27,36, Aib28,31, Lys30]-PYY(23-36) (peptide)
peptide: Ac-E[dP]R[4Pal][Cha][Aib]NK[Aib]TRQR[Cha]-NH2
SMILES: CC(=O)N[C@@H](CCC(=O)O)C(=O)N1CCC[C@@H]1C(=O)N[C@@H](CCCNC(=N)N)C(=O)N[C@@H](Cc1ccncc1)C(=O)N[C@@H](CC1CCCCC1)C(=O)NC(C)(C)C(=O)N[C@@H](CC(N)=O)C(=O)N[C@@H](CCCCN)C(=O)NC(C)(C)C(=O)N[C@H](C(=O)N[C@@H](CCCNC(=N)N)C(=O)N[C@@H](CCC(N)=O)C(=O)N[C@@H](CCCNC(=N)N)C(=O)N[C@@H](CC1CCCCC1)C(N)=O)[C@@H](C)O
As to B6, the IC50 Ratio (IC50 compound/IC50 PYY(3-36)) in experiment [1] is 2.7. Besides, the GBA EC50 Ratio ([35S]GTPγS binding) (EC50 compound/EC50 PYY(3-36)) in experiment [2] stood at 1.9.

Source of the values: patent US20120172293A1 (Takeda / Millennium, published 2012).
